Earlier results, collected in patent US5608039A, “Single chain B3 antibody fusion proteins and their uses” (The United States of America as represented by the …, priority 1994, dated 1997).

Settings: in vivo

Substance: PE
- toxicity: highly toxic compounds that typically bring about death through liver toxicity
